In patent US20190002511A1 one finds Ki and time to observe clot formation in blood tubes, 300 µM peptide data, which are given here for one substance.

pKi: −log10 of the molar value.

In experiment [1] the target is human α-thrombin (recombinant) (human) (UniProt P00734). In words: assay not named.
The target is the same in experiment [2]. In words: cell-based or functional assay.

The pKi is the Ki on a negative log10 scale, so that one unit is a factor of ten. For β-variegin (peptide), the pKi in experiment [1] is less than 7.52. The time to observe clot formation in blood tubes, 300 µM peptide in experiment [2] was found to be 4 h.
